Results on two substances are retold here after PMC3344845, “Structure of Bradavidin – C-Terminal Residues Act as Intrinsic Ligands” (PLoS ONE, 2012).

The target in assay [1] is Brad-tag–EGFP–His-tag fusion protein (Bradyrhizobium japonicum). Description: BLI; Octet RED384; Brad-tag–EGFP–His-tag (0.03 mg/ml, 700 s) held on anti-Penta-HIS biosensors; higher concentrations: core-bradavidin 0.5, wt bradavidin 1.2, avidin 1.8, streptavidin 1.7, rhizavidin 2.0 mg/ml for 200 s; controls with biotin (3.2 mM for core-bradavidin, 13 mM for avidin) and plain sensors; 30°C. Background: In BLI a coated tip is dipped into the sample, and binding shifts an interference pattern.

The target in assay [2] is core-bradavidin (Bradyrhizobium japonicum). The experiment in a line: ITC; core-bradavidin in the cell, ligand (Brad-tag or Brad-tag–EGFP) in the syringe, 15°C, 50 mM sodium phosphate pH 7.0, 100 mM NaCl; n is the stoichiometry per subunit. For orientation: In ITC the heat of successive injections is recorded.
For assay [3] the target is unchanged. Description: ITC; core-bradavidin in the cell, Brad-tag–EGFP in the syringe, 25°C, 50 mM sodium phosphate pH 7.0, 100 mM NaCl; n is the stoichiometry per subunit.

By Kd is commonly meant the concentration at which binding is half-saturated. Low values mean tighter binding, high ones weaker binding. As usually defined, the stoichiometry N is a count of units in the complex or per binding partner.

Turning to core-bradavidin (domain or fragment), in assay [1], the shift (BLI response) amounted to 1.2 nm.

On to “Brad-tag–EGFP fusion protein (without His-tag)”, for which, in assay [2], the Kd is 2.8 µM, the dH is -0.5 kcal mol^–1 and the stoichiometry N was determined as 0.68. In addition, in assay [3], the Kd came to 3.1 µM, the dH was -1 kcal mol^–1 and the stoichiometry N amounted to 0.68.
